The record followed here is PMC4285774.

What all share (experiment): fluorescence anisotropy
For data set [1], the target named is T1, Spp2 (UniProt Q02521 36-185).
T1 sequence: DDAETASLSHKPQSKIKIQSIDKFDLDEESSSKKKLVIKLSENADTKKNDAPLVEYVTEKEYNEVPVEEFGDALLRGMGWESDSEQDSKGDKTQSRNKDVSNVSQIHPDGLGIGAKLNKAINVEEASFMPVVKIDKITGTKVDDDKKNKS

The target of data set [2] is T2, Prp2 (UniProt P20095 1-876).
T2 sequence: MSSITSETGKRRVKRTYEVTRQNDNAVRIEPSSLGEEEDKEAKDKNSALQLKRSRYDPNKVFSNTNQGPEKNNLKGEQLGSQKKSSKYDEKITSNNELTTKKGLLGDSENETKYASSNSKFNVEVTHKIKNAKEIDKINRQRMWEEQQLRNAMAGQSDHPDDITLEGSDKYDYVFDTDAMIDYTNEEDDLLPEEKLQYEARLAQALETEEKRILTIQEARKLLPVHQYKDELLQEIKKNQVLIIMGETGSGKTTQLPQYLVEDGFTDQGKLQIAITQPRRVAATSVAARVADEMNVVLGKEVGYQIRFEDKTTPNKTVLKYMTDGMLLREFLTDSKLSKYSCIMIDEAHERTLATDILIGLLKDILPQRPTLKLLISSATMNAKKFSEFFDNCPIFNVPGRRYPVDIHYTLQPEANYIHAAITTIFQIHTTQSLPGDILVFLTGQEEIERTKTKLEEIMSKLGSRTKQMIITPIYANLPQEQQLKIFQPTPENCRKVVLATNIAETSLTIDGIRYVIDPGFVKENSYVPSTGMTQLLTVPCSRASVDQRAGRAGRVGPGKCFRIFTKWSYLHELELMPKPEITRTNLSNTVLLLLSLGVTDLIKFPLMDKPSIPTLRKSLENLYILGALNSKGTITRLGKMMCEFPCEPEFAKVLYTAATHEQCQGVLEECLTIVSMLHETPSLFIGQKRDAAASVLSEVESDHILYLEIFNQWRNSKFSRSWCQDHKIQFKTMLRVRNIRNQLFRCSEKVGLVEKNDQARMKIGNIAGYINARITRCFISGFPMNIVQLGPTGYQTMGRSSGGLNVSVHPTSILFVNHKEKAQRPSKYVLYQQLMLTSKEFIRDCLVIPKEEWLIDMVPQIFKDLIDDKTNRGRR

In data set [3] the target is T2, Prp2. This is another data set of the same source.
Data set [4] deals with T3, Prp2;Spp2 (Saccharomyces cerevisiae?;Saccharomyces …, UniProt P20095;Q02521 1-876;36-185, |).
T3 sequence 1: T2 sequence
T3 sequence 2: T1 sequence

Where two headings read alike, the source gives them in different places.

In the case of GGCCGCGAGAAAAAAAAAAAAAAA (ssRNA) [24-nt ssRNA], the binding result in data set [1] is “no binding”; in data set [4] it was “binds”. Moreover, the figures for the Kd in data set [2] and in data set [3] were 70 ± 11 nM and 53 ± 5 nM, respectively.
